# Bridges are numbered along the chain shown (N, C = ends). Where no end group is shown, it is not given here. [ ]: non-standard residue; d: D form. The star is where a group is joined. FITC = O=C1OC2(c3ccc(O)cc3Oc3cc(O)ccc32)c2ccc(NC(=S)*)cc21; olefin residue = not defined here
# Target: full-length BCL-XL (UniProt Q07817-1 1-233)
# Test: fluorescence polarisation
# Sequence of full-length BCL-XL (Q07817 whole entry): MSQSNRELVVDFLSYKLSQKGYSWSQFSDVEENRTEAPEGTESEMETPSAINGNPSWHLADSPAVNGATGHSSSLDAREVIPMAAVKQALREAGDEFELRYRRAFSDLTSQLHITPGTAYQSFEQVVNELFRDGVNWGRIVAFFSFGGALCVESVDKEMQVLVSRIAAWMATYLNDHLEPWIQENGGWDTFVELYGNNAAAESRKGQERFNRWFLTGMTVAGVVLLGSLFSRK
binder,measurement,value
{FITC}-EIWIAQELR[olefin residue]IGD[olefin residue]FNAYYA (staple 10-14; not fully specified; reading uncertain) [FITC-BIM SAHBA2],Kd,68 nM

# Reference: publication PMC6839450 (ACS chemical biology, 2015)
